In doi:10.1101/411793:

Test system: DosR (phosphorylated) (Mycobacterium tuberculosis)
Assay: EMSA

hspX promoter probe was tested, and the binding signal (fold inhibition of binding vs DMSO) was 22.
